Results from IntAct's records for PubMed 25416956.

B1: Keratin, type II cytoskeletal 6A (Homo sapiens), P02538 (parent)
chain: MASTSTTIRSHSSSRRGFSANSARLPGVSRSGFSSVSVSRSRGSGGLGGACGGAGFGSRSLYGLGGSKRISIGGGSCAISGGYGSRAGGSYGFGGAGSGFGFGGGAGIGFGLGGGAGLAGGFGGPGFPVCPPGGIQEVTVNQSLLTPLNLQIDPTIQRVRAEEREQIKTLNNKFASFIDKVRFLEQQNKVLETKWTLLQEQGTKTVRQNLEPLFEQYINNLRRQLDSIVGERGRLDSELRGMQDLVEDFKNKYEDEINKRTAAENEFVTLKKDVDAAYMNKVELQAKADTLTDEINFLRALYDAELSQMQTHISDTSVVLSMDNNRNLDLDSIIAEVKAQYEEIAQRSRAEAESWYQTKYEELQVTAGRHGDDLRNTKQEIAEINRMIQRLRSEIDHVKKQCANLQAAIADAEQRGEMALKDAKNKLEGLEDALQKAKQDLARLLKEYQELMNVKLALDVEIATYRKLLEGEECRLNGEGVGQVNISVVQSTVSSGYGGASGVGSGLGLGGGSSYSYGSGLGVGGGFSSSSGRAIGGGLSSVGGGSSTIKYTTTSSSSRKSYKH
B2: Fructose-1,6-bisphosphatase 1 (Homo sapiens), P09467 (parent)
chain: MADQAPFDTDVNTLTRFVMEEGRKARGTGELTQLLNSLCTAVKAISSAVRKAGIAHLYGIAGSTNVTGDQVKKLDVLSNDLVMNMLKSSFATCVLVSEEDKHAIIVEPEKRGKYVVCFDPLDGSSNIDCLVSVGTIFGIYRKKSTDEPSEKDALQPGRNLVAAGYALYGSATMLVLAMDCGVNCFMLDPAIGEFILVDKDVKIKKKGKIYSLNEGYARDFDPAVTEYIQRKKFPPDNSAPYGARYVGSMVADVHRTLVYGGIFLYPANKKSPNGKLRLLYECNPMAYVMEKAGGMATTGKEAVLDVIPTDIHQRAPVILGSPDDVLEFLKVYEKHSAQ
partner: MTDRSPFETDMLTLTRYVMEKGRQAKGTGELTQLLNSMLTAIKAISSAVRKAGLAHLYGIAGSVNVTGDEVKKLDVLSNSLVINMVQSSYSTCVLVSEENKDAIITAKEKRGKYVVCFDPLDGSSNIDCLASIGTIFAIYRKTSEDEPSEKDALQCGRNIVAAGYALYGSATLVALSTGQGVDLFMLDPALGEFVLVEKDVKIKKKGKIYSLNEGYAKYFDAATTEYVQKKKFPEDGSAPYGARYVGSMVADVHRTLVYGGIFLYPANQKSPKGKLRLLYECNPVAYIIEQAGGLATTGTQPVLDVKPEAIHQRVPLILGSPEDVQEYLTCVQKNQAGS
B3: Keratin, type II cytoskeletal 2 epidermal (Homo sapiens), P35908 (parent)
chain: MSCQISCKSRGRGGGGGGFRGFSSGSAVVSGGSRRSTSSFSCLSRHGGGGGGFGGGGFGSRSLVGLGGTKSISISVAGGGGGFGAAGGFGGRGGGFGGGSSFGGGSGFSGGGFGGGGFGGGRFGGFGGPGGVGGLGGPGGFGPGGYPGGIHEVSVNQSLLQPLNVKVDPEIQNVKAQEREQIKTLNNKFASFIDKVRFLEQQNQVLQTKWELLQQMNVGTRPINLEPIFQGYIDSLKRYLDGLTAERTSQNSELNNMQDLVEDYKKKYEDEINKRTAAENDFVTLKKDVDNAYMIKVELQSKVDLLNQEIEFLKVLYDAEISQIHQSVTDTNVILSMDNSRNLDLDSIIAEVKAQYEEIAQRSKEEAEALYHSKYEELQVTVGRHGDSLKEIKIEISELNRVIQRLQGEIAHVKKQCKNVQDAIADAEQRGEHALKDARNKLNDLEEALQQAKEDLARLLRDYQELMNVKLALDVEIATYRKLLEGEECRMSGDLSSNVTVSVTSSTISSNVASKAAFGGSGGRGSSSGGGYSSGSSSYGSGGRQSGSRGGSGGGGSISGGGYGSGGGSGGRYGSGGGSKGGSISGGGYGSGGGKHSSGGGSRGGSSSGGGYGSGGGGSSSVKGSSGEAFGSSVTFSFR
partner: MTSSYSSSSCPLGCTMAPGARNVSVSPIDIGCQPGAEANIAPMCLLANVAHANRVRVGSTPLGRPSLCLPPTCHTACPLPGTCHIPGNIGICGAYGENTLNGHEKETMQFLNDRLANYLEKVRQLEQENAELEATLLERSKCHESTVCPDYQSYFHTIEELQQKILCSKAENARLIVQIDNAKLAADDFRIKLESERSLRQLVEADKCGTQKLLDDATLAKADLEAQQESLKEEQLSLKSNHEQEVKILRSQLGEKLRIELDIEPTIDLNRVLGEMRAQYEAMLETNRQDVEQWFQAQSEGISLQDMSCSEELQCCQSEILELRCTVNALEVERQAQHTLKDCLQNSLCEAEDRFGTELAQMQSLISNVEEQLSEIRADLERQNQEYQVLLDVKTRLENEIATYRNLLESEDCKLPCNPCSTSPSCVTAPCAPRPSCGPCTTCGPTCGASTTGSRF
B4: Keratin, type II cytoskeletal 2 epidermal (Homo sapiens), P35908 (parent)
chain: B3 chain
B5: Keratin, type II cytoskeletal 2 epidermal (Homo sapiens), P35908 (parent)
chain: B3 chain
partner: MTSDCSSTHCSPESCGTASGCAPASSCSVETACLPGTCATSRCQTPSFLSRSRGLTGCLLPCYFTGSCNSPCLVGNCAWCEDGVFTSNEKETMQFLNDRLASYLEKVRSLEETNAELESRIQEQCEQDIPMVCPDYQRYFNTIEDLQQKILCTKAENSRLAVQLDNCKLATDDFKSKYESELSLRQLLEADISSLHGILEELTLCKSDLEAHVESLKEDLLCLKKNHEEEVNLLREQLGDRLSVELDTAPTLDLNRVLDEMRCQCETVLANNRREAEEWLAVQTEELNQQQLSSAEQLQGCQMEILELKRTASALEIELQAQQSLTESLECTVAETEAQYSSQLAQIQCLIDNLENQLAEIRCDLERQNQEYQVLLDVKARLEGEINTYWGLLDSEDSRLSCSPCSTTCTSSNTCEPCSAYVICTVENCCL

Variants of: B1
Conditions: with tfp11_human TFIP11, Q9UBB9
tfp11_human TFIP11, Q9UBB9, sequence (Q9UBB9 whole entry): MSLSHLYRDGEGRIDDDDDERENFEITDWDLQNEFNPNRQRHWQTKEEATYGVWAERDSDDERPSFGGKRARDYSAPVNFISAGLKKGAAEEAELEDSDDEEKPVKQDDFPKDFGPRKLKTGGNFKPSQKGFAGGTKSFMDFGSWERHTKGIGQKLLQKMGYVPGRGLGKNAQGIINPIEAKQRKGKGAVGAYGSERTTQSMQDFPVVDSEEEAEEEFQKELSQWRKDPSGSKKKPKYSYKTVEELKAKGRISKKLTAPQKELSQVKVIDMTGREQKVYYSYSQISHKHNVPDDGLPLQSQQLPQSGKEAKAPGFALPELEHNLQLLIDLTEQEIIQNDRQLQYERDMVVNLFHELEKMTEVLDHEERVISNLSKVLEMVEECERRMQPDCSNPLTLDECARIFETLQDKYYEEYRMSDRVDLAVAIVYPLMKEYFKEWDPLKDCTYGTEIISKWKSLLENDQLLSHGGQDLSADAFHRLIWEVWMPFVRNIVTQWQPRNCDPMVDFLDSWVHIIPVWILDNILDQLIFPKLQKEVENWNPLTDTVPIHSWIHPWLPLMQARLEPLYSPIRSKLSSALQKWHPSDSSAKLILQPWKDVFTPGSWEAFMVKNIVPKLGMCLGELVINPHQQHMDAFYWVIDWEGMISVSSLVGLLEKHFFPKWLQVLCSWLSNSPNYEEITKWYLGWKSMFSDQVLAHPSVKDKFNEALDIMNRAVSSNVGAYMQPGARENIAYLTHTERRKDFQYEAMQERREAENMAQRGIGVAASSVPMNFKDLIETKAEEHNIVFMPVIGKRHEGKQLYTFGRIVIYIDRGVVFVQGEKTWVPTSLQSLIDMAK

Variant	effect of a mutation on the interaction
MASTSTTIRSHSSSRRGFSANSARLPGVSRSGFSSVSVSRSRGSGGLGGACGGAGFGSRSLYGLGGSKRISIGGGSCAISGGYGSRAGGSYGFGGAGSGFGFGGGAGIGFGLGGGAGLAGGFGGPGFPVCPPGGIQEVTVNQSLLTPLNLQIDPTIQRVRAEEREQIKTLNNKFASFIDKVRFLEQQNKVLETKWTLLQEQGTKTVRQNLEPLFEQYINNLRRQLDSIVGERGRLDSELRGMQDLVEDFKNKYEDEINKRTAAENEFVTLKKDVDAAYMNKVELQAKADTLTDEINFLRALYDAELSQMQTHISDTSVVLSMDNNRNLDLDSIIAEVKAQYEEIAQRSRAEAESWYQTKYEELQVTAGRHGDDLRNTKQEIAEINRMIQRLRSEIDHVKKQCANLQAAIADAEQRGEMALKDAKNKLEGLEDALQKAKQDLARLLKEYQELMNVKLALDVEIPTYRKLLEGEECRLNGEGVGQVNISVVQSTVSSGYGGASGVGSGLGLGGGSSYSYGSGLGVGGGFSSSSGRAIGGGLSSVGGGSSTIKYTTTSSSSRKSYKH [A463P]	disrupting interaction

Variants of: B2
Conditions: with FBP2, O00757

Variant	effect of a mutation on the interaction
MADQAPFDTDVNTLTRFVMEEGRKARGTGELTQLLNSLCTAVKAISSAVRKAGIAHLYGIAGSTNVTGDQVKKLDVLSNDLVMNMLKSSFATCVLVSEEDKHAIIVEPEKRGKYVVCFDPLDGSSNIDCLVSVGTIFGIYRKKSTDEPSEKDALQPGRNLVAAGYALYGSATMLVLAMDCGVNCFMLDPAIGESILVDKDVKIKKKGKIYSLNEGYARDFDPAVTEYIQRKKFPPDNSAPYGARYVGSMVADVHRTLVYGGIFLYPANKKSPNGKLRLLYECNPMAYVMEKAGGMATTGKEAVLDVIPTDIHQRAPVILGSPDDVLEFLKVYEKHSAQ [F194S]	disrupting interaction

Variants of: B2
Conditions: with FBP2, O00757
Remark: another data set of the same source

Variant	effect of a mutation on the interaction
MADQAPFDTDVNTLTRFVMEEGRKARGTGELTQLLNSLCTAVKAISSAVRKAGIAHLYGIAGSTNVTGDQVKKLDVLSNDLVMNMLKSSFATCVLVSEEDKHAIIVEPEKRGKYVVCFDPLDGSSNIDCLVSVGTIFGIYRKKSTDEPSEKDALQPGRNLVAAGYALYGSATMLVLAMDCGVNCFMLDPAIGEFILVDKDVKIKKKGKIYSLNEGYARDFDPAVTEYIQRKKFPPDNSAPYGARYVGSMVADVHRTLVYRGIFLYPANKKSPNGKLRLLYECNPMAYVMEKAGGMATTGKEAVLDVIPTDIHQRAPVILGSPDDVLEFLKVYEKHSAQ [G260R]	disrupting interaction

Variants of: B3
Conditions: with krt38_human KRT38, O76015

Variant	effect of a mutation on the interaction
I477N	disrupting interaction

Variants of: B4
Conditions: with KRT19, P08727
KRT19, P08727, sequence (P08727 whole entry): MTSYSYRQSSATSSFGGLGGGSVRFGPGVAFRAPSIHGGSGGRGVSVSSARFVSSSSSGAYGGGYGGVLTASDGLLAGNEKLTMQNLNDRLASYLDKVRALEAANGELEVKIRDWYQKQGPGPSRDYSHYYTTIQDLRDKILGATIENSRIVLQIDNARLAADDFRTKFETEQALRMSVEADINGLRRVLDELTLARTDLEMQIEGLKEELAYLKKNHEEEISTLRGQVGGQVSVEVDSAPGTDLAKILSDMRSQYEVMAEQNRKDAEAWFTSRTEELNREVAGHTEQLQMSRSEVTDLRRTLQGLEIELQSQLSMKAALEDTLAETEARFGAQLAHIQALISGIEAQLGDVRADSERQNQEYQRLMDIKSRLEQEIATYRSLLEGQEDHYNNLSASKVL

Variant	effect of a mutation on the interaction
I477N	disrupting interaction

Variants of: B5
Conditions: with KRT40, Q6A162

Variant	effect of a mutation on the interaction
I477N	disrupting interaction
